For two molecules, Kd results are on record in article PMC3143260 (2012).

The target of experiment [1] is T1, RPP21 (Pyrococcus furiosus, UniProt Q8U0H6).
T1 chain: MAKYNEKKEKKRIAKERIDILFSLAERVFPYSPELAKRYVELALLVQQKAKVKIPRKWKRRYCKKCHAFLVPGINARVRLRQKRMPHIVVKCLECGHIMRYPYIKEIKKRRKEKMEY
The experiment can be described thus: ITC.

The target in experiment [2] is T1, RPP21. The experiment can be described thus: ITC.

Where two headings read alike, the source gives them in different places.

B1: RPP29 1-127 (protein)
chain: MWRNSEERENRTSGRSQGSYQEIIGRTWIFRGAHRGRVNKKNIVWHELIGLKVRVVNSTHPGYVGIEGYVIDETRNMLVIAGENKVWKVPKDVCIFEFETWDGTKIKISGEKLVGRPEMRLKKRWRK
Regarding B1, the Kd with RPP21 [1] and with RPP21 [2] was 0.25 µM throughout.

B2: RPP29 18-127 (protein)
chain: GSYQEIIGRTWIFRGAHRGRVNKKNIVWHELIGLKVRVVNSTHPGYVGIEGYVIDETRNMLVIAGENKVWKVPKDVCIFEFETWDGTKIKISGEKLVGRPEMRLKKRWRK
As for B2, the Kd in the experiment with RPP21 [2] was found to be 0.23 µM.
